The values below come from patent US20110171222A1 (Hoffmann-La Roche, published 2011).

In experiment [1] the target is HER3 on MCF7, FaDu and Mel-Juso tumor cells (human) (UniProt P21860). Nature of the experiment: cell-based or functional assay.
Experiment [2] deals with T1, Soluble human HER3 extracellular domain fused to Streptavidin Binding Protein (SBP) (human, UniProt P21860 20-643).
T1 construct: It was used as HEK293 supernatant captured on streptavidin plates; also called SBP-HER3
Nature of the experiment: ELISA, SBP-HER3 ECD captured on streptavidin plate, anti-human IgG-HRP detection.
Description: Soluble human HER3 extracellular domain fused to Streptavidin Binding Protein (SBP) was captured on a streptavidin plate. […] For the standard coating, SBP-HER3 containing HEK293 supernatant was diluted (between 1:15 and 1:40) and incubated overnight at 2-80 C (25 μl per well). Intensive washing of the microtiter plate was necessary to remove remaining unbound SBP-HER3.
Antibodies were tested either undiluted or using a 12-step-dilution. 12.5 μl per well of each sample was incubated for 90 min at room temperature.

For another experiment, the target named is T2, human HER3 ECD (human, UniProt P21860 20-643).
T2 construct: also called hHER3-ECD; hu-HER3-ECD
Nature of the experiment: SPR (Biacore T100), antibody captured by anti-Fc gamma, HER3 ECD as analyte, 25 °C, 1:1 Langmuir model.

Experiment [3] deals with T1, Soluble human HER3 extracellular domain …. Description: ratio of the concentration by HER3-ECD ELISA to the concentration by IgG ELISA.

Where a chain is given by its changes, count along the chain named.

Description for human HER3 ECD: After conjugation, anti-HER3 antibodies were injected at 25° C. at a flow rate of 5 μL/min, followed by a dilution series (0 nM to 1000 nM) of human HER3 ECD at 30 μL/min. As running buffer for the binding experiment PBS/0.1% BSA was used. The chip was then regenerated with a 60 s pulse of 10 mM glycine-HCl, pH 2.0 solution.
Calculation of thermodynamic parameters (KD, binding constant to HER3) were calculated using a Langmuir 1:1 binding model.

B1: U1-53 (antibody, from another filing, V domains shown)
VH: EVQLVESGGGLVQPGGSLRLSCAASGFTFSIYSMNWVRQAPGKGLEWVSYISSSSSTIYYADSVKGRFTISRDNAKNSLYLQMNSLRDEDTAVYYCARDRGDFDAFDIWGQGTMVTVSS
VL: DIQMTQSPSSLSASVGDRVTITCQASQDITNYLNWYQQKPGKAPKLLIYDASNLETGVPSRFSGSGSGTDFTFTISSLQPEDIATYNCQQCENFPITFGQGTRLEIK
In experiment [1], B1 gave a pHER3 % inhibition [0.1 µg/ml], MCF7 cells of 54% and a pHER3 % inhibition [1.0 µg/ml], MCF7 cells of 51%.

B2: Mab 205.10.1 (antibody, V domains shown)
VH: QVQLVQSGAEVKKPGASVKVSCKASGYTFRSSYISWVRQAPGQGLEWMGWIYAGTGSPSYNQKLQGRVTMTTDTSTSTAYMELRSLRSDDTAVYYCARHRDYYSNSLTYWGQGTLVTVSS
VL: DIVMTQSPDSLAVSLGERATINCKSSQSLLNSGNQKNYLTWYQQKPGQPPKLLIYWASTRESGVPDRFSGSGSGTDFTLTISSLQAEDVAVYYCQSDYSYPYTFGQGTKLEIK
notes: Humanized antibody; Only the variable domains are tied to it; The assays detected it with anti-human IgG or captured it with anti-Fc gamma
In the case of B2, the hu_HER3-ECD-ELISA c in experiment [2] worked out at 583 µg/mL. In addition, the Kd in the experiment with human HER3 ECD stood at 2 nM. Further, in experiment [3], the “activity (ratio binding to hu_HER3-ECD/IgG)” value worked out at 0.74.

B3: Mab 205.10.3 (antibody, human IgG1, V domains shown)
VH: B2 VH
VL: B2 VL with A90S, V91I
notes: Humanized antibody; Only the variable domains are tied to it
On to B3, for which the hu_HER3-ECD-ELISA c in experiment [2] is 505 µg/mL. This molecule showed a Kd with human HER3 ECD of 2 nM. For the same molecule, the “activity (ratio binding to hu_HER3-ECD/IgG)” value in experiment [3] stood at 0.83.
